The values that follow come from patent US8242083B2, “Kinase substrates” (PerkinElmer Health Sciences, Inc., priority 2008, dated 2012).

Common to all, as to assay type: biochemical
The target in one test is T1, EphA6 (Homo sapiens, UniProt Q9UF33).
T1 sequence (Q9UF33 23-1036): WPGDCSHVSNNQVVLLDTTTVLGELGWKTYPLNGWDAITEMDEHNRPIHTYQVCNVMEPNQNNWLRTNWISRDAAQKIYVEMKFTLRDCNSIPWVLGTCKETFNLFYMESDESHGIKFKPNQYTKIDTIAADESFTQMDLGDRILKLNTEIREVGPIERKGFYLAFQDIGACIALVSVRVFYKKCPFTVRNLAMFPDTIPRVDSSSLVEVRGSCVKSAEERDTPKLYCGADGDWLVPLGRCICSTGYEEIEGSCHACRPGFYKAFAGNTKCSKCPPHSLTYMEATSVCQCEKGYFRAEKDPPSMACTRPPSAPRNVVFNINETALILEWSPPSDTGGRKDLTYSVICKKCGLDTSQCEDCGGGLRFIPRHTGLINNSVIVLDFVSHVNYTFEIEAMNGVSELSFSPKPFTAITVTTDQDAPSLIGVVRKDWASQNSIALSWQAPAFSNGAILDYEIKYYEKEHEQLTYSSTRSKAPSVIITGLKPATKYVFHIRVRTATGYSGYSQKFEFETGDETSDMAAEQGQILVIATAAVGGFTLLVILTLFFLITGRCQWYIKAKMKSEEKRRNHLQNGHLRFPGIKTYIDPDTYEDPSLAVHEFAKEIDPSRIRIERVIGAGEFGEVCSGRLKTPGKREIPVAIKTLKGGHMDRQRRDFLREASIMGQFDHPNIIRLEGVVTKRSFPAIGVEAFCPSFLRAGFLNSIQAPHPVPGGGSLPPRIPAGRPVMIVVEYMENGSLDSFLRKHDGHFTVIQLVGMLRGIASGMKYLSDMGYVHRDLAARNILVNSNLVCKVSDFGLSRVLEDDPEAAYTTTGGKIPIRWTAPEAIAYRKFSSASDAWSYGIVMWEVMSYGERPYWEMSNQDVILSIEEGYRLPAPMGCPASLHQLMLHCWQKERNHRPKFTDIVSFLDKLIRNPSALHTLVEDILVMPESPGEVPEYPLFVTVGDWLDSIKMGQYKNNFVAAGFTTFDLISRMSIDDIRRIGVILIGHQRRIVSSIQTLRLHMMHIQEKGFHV
In words: TR-FRET kinase assay, EphA6. To be noted: Kinase Concentration 0.5 nM; 50 nM ULight-labeled substrate, 200 micromolar ATP, 2 hours. As for the experimental part:
(§1) TR-FRET kinase assays are performed under standardized conditions: various individual kinases are incubated with 50 nM of kinase substrate BRB1 labeled with the TR-FRET acceptor dye ULight (PerkinElmer) and 200 micromolar ATP in 10 μL of kinase assay buffer (50 mM HEPES pH7.5, 10 mM MgCl2, 3 mM MnCl2, 1 mM EGTA, 2 mM DTT and 0.01% Tween-20) for 2 hours at room temperature. Reactions are stopped with EDTA, and anti-phospho-tyrosine antibodies (clone PT66) labeled with the TR-FRET europium chelate donor dye are added to a final concentration of 2 nM in a final volume of 20 μL. The TR-FRET signal emitted at 665 nm is read one hour after the addition of antibodies using a TR-FRET plate reader such as the Envision® Multilabel Plate reader (PerkinElmer). The emitted signal at 665 nm is proportional to the extent of peptide phosphorylation, Control reactions indicative of background are performed excluding ATP from the reaction.
(§2) Assay conditions are identical to those used described for FIG. 1.

The target of another test is T2, EphB2 (Homo sapiens, UniProt P29323).
T2 sequence (P29323 19-1055): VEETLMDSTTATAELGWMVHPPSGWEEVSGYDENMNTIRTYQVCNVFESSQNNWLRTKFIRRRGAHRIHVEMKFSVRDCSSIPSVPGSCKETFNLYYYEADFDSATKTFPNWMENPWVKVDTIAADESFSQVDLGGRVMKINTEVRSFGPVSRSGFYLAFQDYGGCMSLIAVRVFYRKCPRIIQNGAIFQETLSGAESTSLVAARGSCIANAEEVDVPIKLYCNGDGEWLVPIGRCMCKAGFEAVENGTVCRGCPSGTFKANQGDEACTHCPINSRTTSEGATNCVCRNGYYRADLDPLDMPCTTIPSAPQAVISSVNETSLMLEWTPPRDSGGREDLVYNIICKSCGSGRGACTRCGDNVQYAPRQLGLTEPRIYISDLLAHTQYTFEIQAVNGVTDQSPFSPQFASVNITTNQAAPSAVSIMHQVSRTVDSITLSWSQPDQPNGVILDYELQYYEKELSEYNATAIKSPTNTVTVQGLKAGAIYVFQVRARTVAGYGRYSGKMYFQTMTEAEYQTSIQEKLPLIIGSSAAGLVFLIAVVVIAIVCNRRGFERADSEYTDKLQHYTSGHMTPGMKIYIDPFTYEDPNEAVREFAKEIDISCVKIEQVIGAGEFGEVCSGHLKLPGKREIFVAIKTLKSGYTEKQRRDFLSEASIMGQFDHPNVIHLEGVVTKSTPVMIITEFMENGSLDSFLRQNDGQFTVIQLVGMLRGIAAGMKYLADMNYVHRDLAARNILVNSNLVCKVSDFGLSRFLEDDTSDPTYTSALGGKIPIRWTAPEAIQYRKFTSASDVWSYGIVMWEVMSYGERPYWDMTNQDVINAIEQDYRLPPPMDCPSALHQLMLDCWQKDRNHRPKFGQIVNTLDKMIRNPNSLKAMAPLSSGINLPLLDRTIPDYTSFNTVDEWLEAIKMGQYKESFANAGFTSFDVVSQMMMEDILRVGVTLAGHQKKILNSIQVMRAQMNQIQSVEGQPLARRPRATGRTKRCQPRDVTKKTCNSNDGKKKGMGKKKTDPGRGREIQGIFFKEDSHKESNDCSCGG
In words: TR-FRET kinase assay, EphB2. To be noted: Kinase Concentration 0.25 nM; 50 nM ULight-labeled substrate, 200 micromolar ATP, 2 hours. The procedure: as §1, §2
Background: TR-FRET usually uses a lanthanide donor and a delayed reading to cut background.

The target in a further test is ABL [T315I] (ABL1) (Homo sapiens, UniProt P00519, T315I). In words: TR-FRET kinase assay, ABL [T315I]. To be noted: Kinase Concentration 0.5 nM; 50 nM ULight-labeled substrate, 200 micromolar ATP, 2 hours. As for the experimental part: as §1, §2

Turning to “C AYE AYE AYE K EYA EYA EYA K AYA EYE R (CAYEAYEAYEKEYAEYAEYAKAYAEYER; tyrosine kinase substrate peptide) [BRB1]”, the “Signal to Noise ratio with BRB1 Peptide” value with EphA6 is on record as 5.4; with EphB2, 28.8; with ABL [T315I] (ABL1), 4.8.
